From US20200224186A1 (University of Washington, published 2020)

What was measured:
[1] = target: the molecule itself; assay: size exclusion chromatography and negative stain EM, self-assembly
[2] = target: the molecule itself; assay: electron cryo-tomography of released vesicles, self-assembly

Row | Protein | binding result [1] | binding result [2]
1 | Myr-I3-01-myc-p6 (designed binder, N-terminal myristoylation motif (6 N-terminal amino acids of HIV Gag); not myristoylated when produced in E. coli, Forms icosahedral assemblies like I3-01; also called Myr-I3-01-p6) MGARASGSKSGSGSDSGSKMEELFKKHKIVAVLRANSVEEAKKKALAVFLGGVHLIEITFTVPDADTVIKELSFLKEMGAIIGAGTVTSVEQCRKAVESGAEFIVSPHLDEEISQFCKEKGVFYMPGVMTPTELVKAMKLGHTILKLFPGEVVGPQFVKAMKGPFPNVKFVPTGGVNLDNVCEWFKAGVLAVGVGSALVKGTPVEVAEKAKAFVEKIRGCTEQKLISEEDLQSRPEPTAPPEESFRSGVETTTPPQKQEPIDKELYPLTSLRSLFGNDPSSQ | binds | –
2 | EPN-01 (designed binder, N-terminal myristoylation motif (6 N-terminal amino acids of HIV Gag), Every subunit bears the M domain; also called Myr1-12GS-I3-01(M3I)-myc-Late1) MGARASGSKSGSGSDSGSKIEELFKKHKIVAVLRANSVEEAKKKALAVFLGGVHLIEITFTVPDADTVIKELSFLKEMGAIIGAGTVTSVEQCRKAVESGAEFIVSPHLDEEISQFCKEKGVFYMPGVMTPTELVKAMKLGHTILKLFPGEVVGPQFVKAMKGPFPNVKFVPTGGVNLDNVCEWFKAGVLAVGVGSALVKGTPVEVAEKAKAFVEKIRGCTEQKLISEEDLQSRPEPTAPPEESFRSGVETTTPPQKQEPIDKELYPLTSLRSLFGNDPSSQ | – | binds
